Experiment in all cases: holdup assay
What all share (parameters): key: below the threshold = too weak to quantify, mostly under pKd 3.1 to 4
Holding throughout (conditions): plain residues with an end cap or a label only (N-terminal biotin on a linker: ado-ado)

Experiment [1] has as its target AHNAK1, Q09666.
The target of experiment [2] is T1, APBA3_1, O96018.
T1 sequence (O96018 389-490, limits assumed, looked up): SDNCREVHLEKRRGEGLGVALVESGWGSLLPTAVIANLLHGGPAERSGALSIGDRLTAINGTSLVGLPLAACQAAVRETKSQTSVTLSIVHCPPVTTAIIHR

In experiment [3] the target is T2, ARHGEF11, O15085.
T2 sequence (O15085 42-136, limits assumed, looked up): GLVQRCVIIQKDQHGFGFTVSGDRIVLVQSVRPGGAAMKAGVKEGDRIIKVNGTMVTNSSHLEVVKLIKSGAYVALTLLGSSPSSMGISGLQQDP

In experiment [4] the target is T3, DFNB31_3, Q9P202.
T3 sequence (Q9P202 811-907, limits assumed, looked up): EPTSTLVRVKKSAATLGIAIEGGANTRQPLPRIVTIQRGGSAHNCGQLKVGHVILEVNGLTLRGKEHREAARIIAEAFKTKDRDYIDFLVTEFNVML

Experiment [5] deals with DLG1_3, Q12959.
For experiment [6], the target named is DLG2_3, Q15700.
The target in experiment [7] is T4, DLG3_1, Q92796.
T4 sequence (Q92796 125-227, limits assumed, looked up): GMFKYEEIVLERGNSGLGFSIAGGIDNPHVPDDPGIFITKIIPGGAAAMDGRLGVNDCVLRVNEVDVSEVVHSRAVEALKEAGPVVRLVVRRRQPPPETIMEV

Experiment [8] concerns the target HTRA1, Q92743.
Experiment [9] concerns the target IL16_3, Q14005.
The target of experiment [10] is T5, LIN7A, O14910.
T5 sequence (O14910 103-200, limits assumed, looked up): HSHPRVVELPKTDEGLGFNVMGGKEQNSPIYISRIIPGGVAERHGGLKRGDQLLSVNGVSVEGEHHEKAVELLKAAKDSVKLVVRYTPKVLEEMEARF

In experiment [11] the target is T6, LRRC7, Q96NW7.
T6 sequence (Q96NW7 1440-1537, limits assumed, looked up): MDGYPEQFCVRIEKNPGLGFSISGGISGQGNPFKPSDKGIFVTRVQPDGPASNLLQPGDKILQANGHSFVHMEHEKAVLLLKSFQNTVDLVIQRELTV

Experiment [12] has as its target MAGI2_5, Q86UL8.
The target of experiment [13] is MAST1, Q9Y2H9.
In experiment [14] the target is T7, MPDZ_10, O75970.
T7 sequence (O75970 1624-1722, limits assumed, looked up): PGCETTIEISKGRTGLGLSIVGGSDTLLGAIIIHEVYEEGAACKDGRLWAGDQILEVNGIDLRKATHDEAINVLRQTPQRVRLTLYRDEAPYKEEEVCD

Experiment [15] deals with T8, MPDZ_12, O75970.
T8 sequence (O75970 1857-1958, limits assumed, looked up): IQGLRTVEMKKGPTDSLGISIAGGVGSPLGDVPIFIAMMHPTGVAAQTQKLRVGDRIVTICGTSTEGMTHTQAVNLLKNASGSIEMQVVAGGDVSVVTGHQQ

Experiment [16] deals with T9, MPDZ_5, O75970.
T9 sequence (O75970 695-796, limits assumed, looked up): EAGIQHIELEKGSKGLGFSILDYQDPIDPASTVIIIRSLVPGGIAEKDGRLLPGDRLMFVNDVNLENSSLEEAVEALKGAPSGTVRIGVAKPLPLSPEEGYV

For experiment [17], the target named is T10, NHERF3_4, Q5T2W1.
T10 sequence (Q5T2W1 373-468, limits assumed, looked up): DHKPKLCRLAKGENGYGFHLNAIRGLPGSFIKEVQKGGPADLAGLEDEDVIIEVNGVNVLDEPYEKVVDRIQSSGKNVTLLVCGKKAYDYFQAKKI

Experiment [18] deals with NHERF4_2, Q86UT5.
The target in experiment [19] is NOS1, P29475.
For experiment [20], the target named is T11, PDZRN3_1, Q9UPQ7.
T11 sequence (Q9UPQ7 244-349, limits assumed, looked up): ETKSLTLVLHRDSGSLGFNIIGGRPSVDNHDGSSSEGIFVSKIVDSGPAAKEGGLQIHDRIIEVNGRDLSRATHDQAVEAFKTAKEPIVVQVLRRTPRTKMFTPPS

The target in experiment [21] is PICK1, Q9NRD5.
In experiment [22] the target is PTPN3, P26045.
For experiment [23], the target named is TJP1_2, Q07157.
For experiment [24], the target named is T12, TX1BP3, O14907.
T12 sequence (O14907 10-122, limits assumed, looked up): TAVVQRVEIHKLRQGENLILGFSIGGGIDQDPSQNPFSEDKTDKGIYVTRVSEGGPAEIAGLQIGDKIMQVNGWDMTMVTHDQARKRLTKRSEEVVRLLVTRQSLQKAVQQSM

The values below come from article PMC9482650, “Quantitative fragmentomics allow affinity mapping of interactomes” (Nature Communications, 2022).

For orientation: pKd means the negative decadic logarithm of the Kd, by convention in mol/L.

Sequence of MAGI2_5, Q86UL8 (Q86UL8 915-1017): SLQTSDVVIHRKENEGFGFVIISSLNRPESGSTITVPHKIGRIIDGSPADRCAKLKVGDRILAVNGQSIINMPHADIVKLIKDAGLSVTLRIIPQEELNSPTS
Sequence of TJP1_2, Q07157 (Q07157 181-274): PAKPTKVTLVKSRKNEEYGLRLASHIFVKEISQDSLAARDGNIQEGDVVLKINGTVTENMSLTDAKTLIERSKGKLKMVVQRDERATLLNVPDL
Sequence of NHERF4_2, Q86UT5 (Q86UT5 220-308): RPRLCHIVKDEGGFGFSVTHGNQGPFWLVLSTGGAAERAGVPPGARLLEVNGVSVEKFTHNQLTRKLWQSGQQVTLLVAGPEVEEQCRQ
Sequence of NOS1, P29475 (P29475 9-101): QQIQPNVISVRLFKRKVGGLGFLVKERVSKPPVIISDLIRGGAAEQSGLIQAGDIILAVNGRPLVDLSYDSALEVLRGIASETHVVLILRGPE
Sequence of MAST1, Q9Y2H9 (Q9Y2H9 962-1065): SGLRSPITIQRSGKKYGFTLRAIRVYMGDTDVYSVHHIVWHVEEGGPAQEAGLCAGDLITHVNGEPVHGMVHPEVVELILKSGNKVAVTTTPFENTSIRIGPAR
Sequence of DLG1_3, Q12959 (Q12959 457-571): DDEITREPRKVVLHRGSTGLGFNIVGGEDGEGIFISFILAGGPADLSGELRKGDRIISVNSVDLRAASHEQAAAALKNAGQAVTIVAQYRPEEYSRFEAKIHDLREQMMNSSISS
Sequence of PICK1, Q9NRD5 (Q9NRD5 17-115): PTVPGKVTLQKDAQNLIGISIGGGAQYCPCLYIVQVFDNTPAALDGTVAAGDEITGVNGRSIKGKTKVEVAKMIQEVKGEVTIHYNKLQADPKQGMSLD
Sequence of PTPN3, P26045 (P26045 505-587): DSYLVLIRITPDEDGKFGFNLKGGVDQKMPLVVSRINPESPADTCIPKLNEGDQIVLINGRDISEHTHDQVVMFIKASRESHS
Sequence of IL16_3, Q14005 (Q14005 1107-1207): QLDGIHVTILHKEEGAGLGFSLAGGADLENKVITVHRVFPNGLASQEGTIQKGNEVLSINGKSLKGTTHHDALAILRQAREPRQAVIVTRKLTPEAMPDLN
Sequence of HTRA1, Q92743 (Q92743 360-477): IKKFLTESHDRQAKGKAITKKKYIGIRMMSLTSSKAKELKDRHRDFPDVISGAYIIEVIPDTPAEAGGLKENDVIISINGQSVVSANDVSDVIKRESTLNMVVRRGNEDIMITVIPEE
Sequence of AHNAK1, Q09666 (Q09666 4-100): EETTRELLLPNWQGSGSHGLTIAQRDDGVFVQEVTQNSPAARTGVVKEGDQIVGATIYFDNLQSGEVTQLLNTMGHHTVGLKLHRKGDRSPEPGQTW

B1: FAM167B, Q9BTA0 (peptide)
chain: NISARRFTLC
With B1, the negative-log Kd (pKd) entry is “below the threshold” in [1]; “below the threshold” in [2]; 3.86 in [3]; 3.99 in experiment [4]; 4.06 in [5]; 4.43 in [6]. In addition, the pKd is 3.98 in experiment [7]; 4.47 in [8]; “below the threshold” in experiment [9]; “below the threshold” in experiment [10]; “below the threshold” in experiment [11]; 4.26 in experiment [12]. In addition, the pKd result was “below the threshold” in experiment [13]; “below the threshold” in experiment [14]; 3.52 in [15]; “below the threshold” in experiment [16]; “below the threshold” in experiment [17]; “below the threshold” in experiment [18]. Also, the negative-log Kd (pKd) is 3.81 in experiment [19]; “below the threshold” in [20]; “below the threshold” in experiment [21]; 3.61 in [22]; “below the threshold” in experiment [23]; “below the threshold” in experiment [24].

B2: CACNA1D, Q01668 (peptide)
chain: ADEMICITTL
As to B2, the pKd entry in [1] was “below the threshold”; in experiment [2], “below the threshold”; in experiment [3] it was 5.77; in experiment [4] it was 4.89; in [5] it was 3.78; in [6] it was 3.81. For the same molecule, the pKd was 3.56 in [7]; 5.79 in experiment [8]; “below the threshold” in [9]; “below the threshold” in experiment [10]; 3.8 in experiment [11]; 4.76 in experiment [12]. In addition, the pKd in experiment [13] was 5.06; in experiment [14], “below the threshold”; in [15], 4.02; in experiment [16] it was “below the threshold”; in [17], 4.19; in [18], “below the threshold”. Further, the pKd is 3.58 in [19]; “below the threshold” in experiment [20]; 4.14 in experiment [21]; 4.62 in experiment [22]; “below the threshold” in experiment [23]; 3.87 in experiment [24].

B3: LRRC4, Q9HBW1 (peptide)
chain: TKDKVQETQI
With B3, the pKd entry in experiment [1] is “below the threshold”; in experiment [2], “below the threshold”; in experiment [3], 3.73; in experiment [4] it was 4.11; in experiment [5] it was 4.18; in [6], 4.16. Also, the negative-log Kd (pKd) was 3.81 in experiment [7]; “below the threshold” in experiment [8]; “below the threshold” in [9]; 3.51 in experiment [10]; 3.53 in experiment [11]; 3.96 in experiment [12]. Besides, the negative-log Kd (pKd) in experiment [13] is 4.28; in [14], “below the threshold”; in [15], “below the threshold”; in experiment [16] it was “below the threshold”; in [17] it was 3.57; in experiment [18] it was “below the threshold”. For the same molecule, the pKd is 4.02 in experiment [19]; 4.4 in [20]; “below the threshold” in [21]; 5.05 in experiment [22]; 3.64 in experiment [23]; 4.28 in experiment [24].

B4: NEB, P20929 (peptide)
chain: MLPANYVEAI
Regarding B4, the negative-log Kd (pKd) entry in experiment [1] was “below the threshold”; in experiment [2] it was “below the threshold”; in experiment [3], “below the threshold”; in experiment [4], “below the threshold”; in experiment [5], “below the threshold”; in experiment [6], 3.56. Further, the pKd result in experiment [7] was “below the threshold”; in experiment [8], 4.03; in experiment [9], “below the threshold”; in [10] it was “below the threshold”; in experiment [11], “below the threshold”; in experiment [12], “below the threshold”. The negative logarithm of the Kd (pKd) entry in experiment [13], in [14], in experiment [15], in [16], in experiment [17] and in [18] was “below the threshold” in each case. The pKd is 3.52 in [19]; “below the threshold” in [20]; 3.94 in [21]; 3.64 in [22]; “below the threshold” in [23]; “below the threshold” in experiment [24].

B5: HDAC7, Q8WUI4 (peptide)
chain: LVEEEEPMNL
For B5, the pKd result in [1] is “below the threshold”; in experiment [2] it was “below the threshold”; in experiment [3] it was “below the threshold”; in experiment [4], 3.94; in [5], “below the threshold”; in experiment [6], “below the threshold”. Moreover, the pKd entry in experiment [7] is “below the threshold”; in experiment [8], 4.16; in [9] it was “below the threshold”; in [10], “below the threshold”; in experiment [11], “below the threshold”; in experiment [12] it was “below the threshold”. Moreover, the pKd in experiment [13] was 3.61; in [14], “below the threshold”; in experiment [15], “below the threshold”; in [16], “below the threshold”; in [17], “below the threshold”; in experiment [18], “below the threshold”. Further, the pKd entry in experiment [19] was “below the threshold”; in experiment [20], “below the threshold”; in experiment [21], 4.11; in experiment [22], 4.04; in experiment [23], “below the threshold”; in experiment [24], 4.01.
